Results reported in patent publication US6962792B1, “Methods and means for inhibition of Cdk4 activity” (Cyclacel Limited, priority 1996, dated 2005).
“Also recorded” adds a separate entry of the source. Read-outs that look alike come from different tables or passages of the source. Where a SMILES comes first, the peptide text is derived from it. Where no end group is shown, it is not given here.

Experiments:
cyclin D1-Cdk4 [1] = biological target: T1, cyclin D1-Cdk4 (Homo sapiens, UniProt P11802+P24385); test: Cyclin D1-Cdk4 GST-Rb phosphorylation assay (Sf9 insect cell lysate); format: biochemical
T1 construct: made in house; host or cells: Sf9 insect cells, baculovirus co-infection; unpurified lysate
T1 sequence (P11802 whole entry): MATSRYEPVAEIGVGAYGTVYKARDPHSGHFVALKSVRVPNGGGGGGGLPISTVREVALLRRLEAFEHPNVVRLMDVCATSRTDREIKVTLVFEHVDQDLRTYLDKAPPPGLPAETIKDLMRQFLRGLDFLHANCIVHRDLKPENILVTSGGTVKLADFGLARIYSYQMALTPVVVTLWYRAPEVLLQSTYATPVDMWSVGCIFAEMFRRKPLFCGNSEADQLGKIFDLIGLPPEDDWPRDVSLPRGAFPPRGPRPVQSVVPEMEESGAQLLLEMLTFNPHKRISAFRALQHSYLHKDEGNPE
T1 sequence (P24385 whole entry): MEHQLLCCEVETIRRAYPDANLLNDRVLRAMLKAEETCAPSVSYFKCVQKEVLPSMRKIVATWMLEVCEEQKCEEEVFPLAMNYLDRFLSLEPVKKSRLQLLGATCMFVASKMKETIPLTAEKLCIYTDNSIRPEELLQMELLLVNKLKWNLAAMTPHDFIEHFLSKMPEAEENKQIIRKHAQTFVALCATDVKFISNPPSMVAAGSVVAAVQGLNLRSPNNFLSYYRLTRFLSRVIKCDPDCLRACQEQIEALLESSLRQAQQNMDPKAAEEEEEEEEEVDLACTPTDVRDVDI
Method: (§1) “x” indicates no addition of peptide.
(§2) Cyclins and CDKs—Cdk4 and cyclin D1, Cdk2 and cyclin E and Cdc2 and cyclin B were co-expressed in Sf9 insect cells infected with the appropriate baculovirus constructs. The cells were harvested two days after infection by low speed centrifugation and the pellet was lysed in an equal volume of 10 mM Hepes, pH 7.4 containing: 10 mM NaCl, 1 mM EDTA, and 0.1 mM phenylmethane sulphonyl fluoride, 2 mM DTT and centrifuged at 14000×g for 15 min. The supernatant was removed, aliquoted and immediately frozen in liquid nitrogen. Thawed lysate was used only once and was never refrozen. Labelled Cdk4 and cyclin D1 were produced by translation in the presence of [^35S] methionine using a rabbit reticulocyte lysate in vitro translation kit (Promega).
(§3) Phosphorylation of GST-Rb—Cdk4 activity was measured using the cyclin D1-Cdk4 containing insect cell lysate described above. Extract (1 μl) was added to a final reaction volume of 10 μl, containing: 50 mM Hepes, pH 7.4, 10 mM MgCl2, 2.5 mM EGTA, 1 mM DTT, 10 mM β-glycerophosphate, 1 mM NaF, 10 mM PKI, 50 μM ATP containing [^32P] ATP (1000 cpm/pMol) and 0.5 μg GST-Rb. […] The samples were analysed by SDS-PAGE on 12% gels followed by auto-radiography and quantification using a Bio-Imager.

cyclin D1-Cdk4 [2] = biological target: T2, cyclin D1-Cdk4 (Homo sapiens, UniProt P11802); test: as above; format: biochemical; conditions: GST-Rb substrate; read-out: I0.5 for inhibition of Cdk4 activity
T2 construct: made in house; host or cells: Sf9 insect cells, baculovirus co-infection; unpurified lysate
T2 sequence (P11802 whole entry): as the sequence (P11802 whole entry) above
T2 sequence (P24385 whole entry, further chain): as the sequence (P24385 whole entry) above
Method: as §1, §2, §3

cyclin D1-Cdk4 [3] = biological target: T1, cyclin D1-Cdk4; test: Peptide phosphorylation by cyclin D1-Cdk4; format: biochemical; conditions: conditions where 2.4 nMol 32P incorporated per nMol GST-Rb
Method: The biotinylated peptides (1 μg) were incubated for 30 min at 30° C. in a final volume of 20 μl containing: 50 mM Hepes, pH 7.4, 10 mM MgCl2, 2.5 mM EGTA, 1 mM DTT, 10 mM β-glycerophosphate, 1 mM NaF, 10 mM PKI, 50 μM ATP containing [^32P]ATP (6000 cpm/pMol) and either 1 μl of cyclin D1-Cdk4 insect cell lysate, 1 μl of uninfected insect cell lysate or 0.02 mU of protein kinase C plus 0.5 mM CaCl2, 100 mg/ml phosphatidyl serine and 20 mg/ml diacylglycerol. The reactions were stopped by heating at 60° C. for 5 min and streptavidin agarose beads were added (10 μl packed cell volume washed with 3×PBS) and incubated with shaking at 4° C. for 30 min. The beads were washed extensively with PBS containing 3% (v/v) Tween-20 and the incorporation of radioactivity into the peptides was determined by Cerenkov counting.

cyclin B-Cdc2 = biological target: T3, cyclin B-Cdc2 (Homo sapiens, UniProt P06493); test: Cyclin B-Cdc2 histone H1 kinase assay; format: biochemical; conditions: concentrations up to 20 μM
T3 construct: made in house; host or cells: Sf9 insect cells, baculovirus co-infection; unpurified lysate
T3 sequence (P06493 whole entry): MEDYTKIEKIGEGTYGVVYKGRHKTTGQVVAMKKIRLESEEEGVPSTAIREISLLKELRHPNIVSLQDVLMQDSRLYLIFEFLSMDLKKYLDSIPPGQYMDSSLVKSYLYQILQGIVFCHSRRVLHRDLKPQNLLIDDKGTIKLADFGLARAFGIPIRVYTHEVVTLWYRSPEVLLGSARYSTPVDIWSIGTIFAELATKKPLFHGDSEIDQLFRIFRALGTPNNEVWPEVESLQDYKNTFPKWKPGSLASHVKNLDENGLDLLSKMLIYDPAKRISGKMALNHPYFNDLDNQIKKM
T3 sequence (P14635 whole entry partner): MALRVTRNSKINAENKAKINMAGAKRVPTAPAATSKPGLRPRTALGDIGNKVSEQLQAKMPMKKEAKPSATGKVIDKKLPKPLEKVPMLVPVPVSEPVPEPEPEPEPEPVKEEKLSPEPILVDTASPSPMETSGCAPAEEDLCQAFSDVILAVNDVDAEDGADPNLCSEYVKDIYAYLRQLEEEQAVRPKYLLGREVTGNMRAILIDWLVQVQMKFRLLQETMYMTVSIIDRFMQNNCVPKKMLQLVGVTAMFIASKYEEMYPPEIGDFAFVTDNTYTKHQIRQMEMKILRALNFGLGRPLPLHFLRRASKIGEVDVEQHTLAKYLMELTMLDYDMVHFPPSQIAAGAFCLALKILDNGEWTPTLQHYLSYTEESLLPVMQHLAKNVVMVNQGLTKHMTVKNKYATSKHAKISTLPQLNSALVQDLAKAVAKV
Method: The conditions were identical to those described in the Experimental Procedures for cyclin D1-Cdk4 except that histone H1 (0.5 μg/assay) was used as the substrate for cyclin B-Cdc2.

HaCaT cells = test: Cell cycle measurements by BrdU/FACS in HaCaT cells; format: cell-based, human; conditions: for G1-, S-phase distribution / G1 arrest: proliferating HaCaT cells, 24 hours, Peptide-I and Peptide-III 25 μM, Peptide-II 50 μM
Method: The peptides were added to proliferating HaCaT cells, grown in DMEM plus 10% FCS. The cells were incubated for 24 hours pulse labelled during with 15 μM BrdU, fixed and then analysed by FACS.
Carrier linked peptides were designed for delivery into proliferating HaCaT cells (see FIG. 9). Cells were seeded on 30mm culture plates and grown to 50% confluency in Dulbecco's modified Eagle's medium (DMEM) supplemented with 10% (v/v) foetal calf serum (FCS). Peptides were added to the medium and the cells were incubated for 24 hours. During the last 30 minutes of the incubation the cells were pulse labelled in the presence of 15 μM BrdU. The cells were trypsinised, fixed in absolute alcohol and prepared for FACS analysis using a single laser flow cytometer (Becton-Dickinson, FACScan) as previously described (Renzing et al, 1996).

Soas2 cells = test: Cell cycle arrest in Rb negative cells; format: cell-based
[4] = tested on: pRb phosphorylation in HaCaT cells; test: pRb phosphorylation in HaCaT cells (Western blot); format: cell-based, human; conditions: serum-starved HaCaT cells released with 10% FCS, 24 hour time course; Peptide-I 25 μM, Peptide-II 50 μM
Source text: Samples were taken at the times shown and analysed by SDS-PAGE/Western blot stained for pRb. pRb represents hypophosphorylated Rb protein and pRb* refers to hyperphosphorylated Rb protein. It should be pointed out that equal amounts of total protein were loaded per lane and that the antibody appears to preferentially recognise phosphorylated forms of the Rb protein. Peptide I corresponds with SEQ ID NO:24; peptide II corresponds with SEQ ID NO:25; and peptide III corresponds with SEQ ID NO:26.
HaCaT cells were seeded on 30 mm culture plates at 25% confluency in DMEM with 10% FCS. The FCS was withdrawn after 24 hours and the cells were starved for 72 hours. At the end of this period the medium was supplemented with 10% FCS and carrier linked peptides. Samples were taken over a 24 hour time course and the cells were lysed in RIPA buffer (50 mM Tris-HCl, pH 8.0, containing 150 mM NaCl, 1.0% (v/v) NP-40, 0.5% (w/v) DOC, 0.1% (w/v) SDS, 1 mM PMSF, 0.1 mg/ml aprotinin and 0.5 mg/ml leupeptin) for 30 minutes at 4° C. The phosphorylation statues of pRb was determined by Western blot analysis, as previously described (Fahraeus et al, 1996) except that the blot was probed with a pRb polyclonal antibody (C-15, Santa Cruz).

cyclin D1-Cdk4 [5] = biological target: T1, cyclin D1-Cdk4; test: Relief of p21WAF1 inhibition in cyclin D1-Cdk4 GST-Rb phosphorylation assay; format: biochemical; conditions: peptide 1, 5, 17 & 34 μM, fixed concentration of p21WAF1
[6] = biological target: cyclin D1-Cdk4 complex co-expressed in Sf9 insect cells (lysate) (UniProt P11802); test: cell-based or functional assay
Chain of cyclin D1-Cdk4 complex co-expressed in Sf9 insect cells (lysate) (UniProt P11802) (P11802 whole entry, chain 1 of 2): as the sequence (P11802 whole entry) above
Chain of cyclin D1-Cdk4 complex co-expressed in Sf9 insect cells (lysate) (UniProt P11802) (P24385 whole entry, chain 2 of 2, further chain): as the sequence (P24385 whole entry) above

[7] = biological target: cyclin D1-Cdk4 complex co-expressed in Sf9 insect cells (lysate) (UniProt P11802 1-303; P24385 1-295); test: cell-based or functional assay
Chain of cyclin D1-Cdk4 complex co-expressed in Sf9 insect cells (lysate) (UniProt P11802 1-303; P24385 1-295) (P11802 whole entry, chain 1 of 2): as the sequence (P11802 whole entry) above
Chain of cyclin D1-Cdk4 complex co-expressed in Sf9 insect cells (lysate) (UniProt P11802 1-303; P24385 1-295) (P24385 whole entry, chain 2 of 2): as the sequence (P24385 whole entry) above

[8] = biological target: T4, Cdk4 labelled with [35S]methionine, translated in rabbit reticulocyte lysate (human, UniProt P11802 1-303, [35S]methionine label); test: peptide precipitation of 35S-labelled protein from reticulocyte lysate, SDS-PAGE and autoradiography
T4 construct: also called 35S-labelled Cdk4
T4 sequence (P11802 whole entry): as the sequence (P11802 whole entry) above
Method: (§4) After extensive washing bound proteins were analysed using SDS-PAGE followed by autoradiography. The bands were quantified using a Bio-Imager and Whole Band Analysis Software (Millipore).
(§5) Peptide (1.5 μg) was diluted in 100 μl of PBS and incubated with 10 μl of packed streptavidin-agarose beads (Sigma) for 1 h at room temperature. Unbound peptide was removed by extensive washing with PBS and the beads, plus bound peptide, were incubated for 1 h at 4° C. with reticulocyte lysate containing either Cdk4 or cyclin D1 labelled with [^35S] methionine. […] The bound protein was analysed by SDS-PAGE followed by auto-radiography and quantification of the ^35S-labelled protein using a Bio-Imager and Whole Band Analysis Software (Millipore).

[9] = biological target: T5, cyclin D1 labelled with [35S]methionine, translated in rabbit reticulocyte lysate (human, UniProt P24385 1-295, [35S]methionine label); test: as above
T5 construct: also called 35S-labelled cyclin D1
T5 sequence (P24385 whole entry): as the sequence (P24385 whole entry) above
Method: as §4, §5

## 8: synthetic peptide of the p21WAF1 library, SEQ ID NO:8 (AEEDHVDLSLSCTLVPRSGE) [compound 8]
Cyclin D1-Cdk4 [1]
  cyclin D1-Cdk4 inhibitory activity: only weak inhibition
Cyclin D1-Cdk4 [1]; peptide at 17 μM
  inhibition of cyclin D1-Cdk4 activity: inhibited cyclin D1-Cdk4 activity

## CC[C@H](C)[C@H](NC(=O)[C@H](CC(C)C)NC(=O)[C@H](CCCNC(=N)N)NC(=O)[C@H](CCCNC(=N)N)NC(=O)[C@@H](N)CCCCN)C(=O)N[C@@H](Cc1ccccc1)C(=O)N[C@@H](CO)C(=O)N[C@@H](CCCCN)C(=O)O (H-KRRLIFSK-OH; C-terminus assumed)
Cyclin D1-Cdk4 [1]
  cyclin D1-Cdk4 inhibitory activity: completely inhibit cyclin D1-Cdk4 activity
Cyclin D1-Cdk4 [1]; versus full length peptide 10
  fold higher I0.5 than full length peptide: approximately 1000 fold
Cyclin D1-Cdk4 [2]
  IC50: ~100 µM

## CC(C)C[C@H](NC(=O)[C@H](CCCNC(=N)N)NC(=O)[C@H](CCCNC(=N)N)NC(=O)[C@H](CS)NC(=O)[C@H](C)NC(=O)[C@@H](N)CCCCN)C(=O)N[C@@H](Cc1ccccc1)C(=O)NCC(=O)N1CCC[C@H]1C(=O)N[C@H](C(=O)N[C@@H](CC(=O)O)C(=O)N[C@@H](CO)C(=O)N[C@@H](CCC(=O)O)C(=O)N[C@@H](CCC(N)=O)C(=O)N[C@@H](CC(C)C)C(=O)N[C@@H](CO)C(=O)N[C@@H](CCCNC(=N)N)C(=O)N[C@@H](CC(=O)O)C(=O)N[C@@H](CS)C(=O)N[C@@H](CC(=O)O)C(=O)O)C(C)C [peptide 2] (H-KACRRLFGPVDSEQLSRDCD-OH; C-terminus assumed)
Cyclin D1-Cdk4 [1]; peptide at 17 μM, read-out: inhibition of kinase activity
  inhibition at 17 µM: ~80%
Cyclin D1-Cdk4 [3]
  substrate for cyclin D1-Cdk4: neither peptide 2 nor peptide 10 were substrates for cyclin D1-Cdk4
Cyclin B-Cdc2
  effect on Cdc2-cyclin B histone H1 kinase activity: neither peptide 2 nor peptide 10 had a significant effect

## Peptide-I: peptide 10 with M to A at position 7 synthesised onto Antennapedia carrier peptide, SEQ ID NO:24 (KRRQTSATDFYHSKRRLIFSRQIKIWFQNRRMKWKK)
HaCaT cells
  G1-, S-phase distribution / G1 arrest: number of cells entering S-phase in the presence of Peptide-I was dramatically reduced and the G1 population showed a concomitant increase
Soas2 cells
  cell cycle arrest / G1 population in pRb negative cells: increase in the population of cells in G1 phase
[4]
  phosphorylation status of pRb: pRb remained hypophosphorylated

## Peptide-II: truncated peptide 10 coupled to carrier peptide, SEQ ID NO:25 (KRRLIFSKRQIKIWFQNRRMKWKK)
HaCaT cells
  G1-, S-phase distribution / G1 arrest: effectively promoted a G1-phase arrest
HaCaT cells; versus Peptide-I
  fold less active as growth suppressor than Peptide-I: 2 fold
Cyclin D1-Cdk4 [1]; carrier linked versus free peptide, data not shown
  fold lower I0.5 in vitro than free peptide: approximately 50 fold
[4]
  phosphorylation status of pRb: totally prevented the phosphorylation of pRb

## Peptide-III: carrier linked control peptide 10 lacking the last 4 amino acids (LIFS), SEQ ID NO:26 (RQTSMTDFYHSKRRRQIKIWFQNRRMKWKK)
HaCaT cells
  G1-, S-phase distribution / G1 arrest: no detectable effect on the ability of HaCaT cells to enter S-phase

## R-A mutant: peptide 10 with R-A at residue 15, equivalent to residue 155 of the full length protein (KRRQTSMTDFYHSKARLIFSSGSG)
Cyclin D1-Cdk4 [5]
  block of inhibitory activity of full length p21WAF1: able to block the inhibitory activity of full length p21^WAF1

## p16INK4 derived peptide (Fahraeus et al., 1996)
[6]
  I0.5 for inhibition of cyclin D1-Cdk4 activity: 16.3 µM

## peptide 4: residues 46-65 of p21WAF1, SEQ ID NO:4, Biotin-SGSG spacer (RERWNFDFVTETPLEGDFAW; not fully specified (N-terminus, C-terminus))
Cyclin D1-Cdk4 [1]
  cyclin D1-Cdk4 inhibitory activity: no detectable activity; also recorded: no Cdk4 inhibitory activity
Cyclin D1-Cdk4 [1]; concentrations of up to 35 μM
  cyclin D1-Cdk4 inhibitory activity: no inhibitory activity

## peptide 11: extreme C-terminal peptide of p21WAF1, SEQ ID NO:11 (TSMTDFYHSKRRLIFSKRKP)
Cyclin D1-Cdk4 [1]
  cyclin D1-Cdk4 inhibitory activity: potent inhibitor of Cdk4 activity
Cyclin D1-Cdk4 [1]; peptide at 17 μM
  inhibition of cyclin D1-Cdk4 activity: completely inhibited enzyme activity

B1: untagged eight amino acid peptide KRRLIFSK (peptide)
peptide: KRRLIFSK
[7]
  fold I0.5 against the full length peptide 10: ~1000 fold

B2: Peptide-II (truncated peptide 10 linked to carrier peptide) (peptide)
peptide: KRRLIFSKRQIKIWFQNRRMKWKK
[7]
  fold decrease in fold I0.5 in vitro against the free truncated peptide 10: ~50 fold

B3: peptide 10 (residues 141-160 of p21^WAF1) (peptide)
peptide: KRRQTSMTDFYHSKRRLIFSSGSG
modifications: not fully specified; Biotin-SGSG spacer at the C-terminus; free N-terminus
[7]
  I0.5 for inhibition of Cdk4 activity (GST-Rb phosphorylation): 0.1 µM

B4: peptide 10 mutant with R-A at residue 15 of peptide 10 (residue 155 of the full length protein) (peptide)
peptide: H-KRRQTSMTDFYHSKARLIFSSGSG
modifications: not fully specified (C-terminus); also: biotin on C-terminal SGSG spacer, order not given here
[7]
  loss of inhibitory activity against cyclin D1-Cdk4 relative to peptide 10: > 60%

B5: peptide 11 (extreme C-terminal peptide of p21^WAF1) (peptide)
peptide: H-TSMTDFYHSKRRLIFSKRKPSGSG
modifications: not fully specified (C-terminus); also: biotin on C-terminal SGSG spacer, order not given here
[7]
  I0.5 for inhibition of Cdk4 activity (GST-Rb phosphorylation): 0.1 µM

B6: peptide 2 (residues 16-35 of p21^WAF1) (peptide)
peptide: H-KACRRLFGPVDSEQLSRDCDSGSG
modifications: not fully specified (C-terminus); cysteine pairing not given here; also: biotin on C-terminal SGSG spacer, order not given here
notes: Synthetic biotinylated peptide, captured on streptavidin-agarose in the precipitation assay; The order of biotin and SGSG at the C-terminus is not spelled out
[7]
  I0.5 for inhibition of Cdk4 activity (GST-Rb phosphorylation): 2 µM
[8]
  binding result: no binding

B7: peptide 4 (residues 46-65 of p21^WAF1) (peptide)
peptide: H-RERWNFDFVTETPLEGDFAWSGSG
modifications: not fully specified (C-terminus); also: biotin on C-terminal SGSG spacer, order not given here
notes: Synthetic biotinylated peptide
[9]
  binding result: no binding
